Laboratory results: publication PMC10639053

Columns and labels:
[1] = target: unmodified mono-nucleosome (human) (UniProt P0C0S8); experiment: MST; 5' FAM-labelled nucleosomes (20 nM) with a dilution series of protein (0.122-4000 nM or 0.122-2000 nM), 50 mM HEPES pH 7.5, 150 mM NaCl, 0.1 mg/ml BSA, 10% glycerol, 0.02% NP40, 1 mM DTT, room temperature 30 min; one-site total binding fit
[2] = tested on: BRCA1 deltaExon11;BARD1 full length (human;human); experiment: MST; conditions: Kd in Table S2, not in material, EMSA: 50 mM Tris pH 7.5, 150 mM NaCl, 0.02% NP40, 0.1 mg/ml BSA, 10% glycerol, 1 mM DTT, 8% sucrose, on ice 1 h, MST: 50 mM HEPES pH 7.5, 150 mM NaCl
[3] = target: human Flag-BRCA1^ΔExon11:6xHis-FL BARD1 complex, P38398-5;Q99728; experiment: MST; conditions: read at the highest titrant concentration (2000 nM Flag-BRCA1ΔExon11:6xHis–BARD1); 20 nM 5′ FAM-labelled nucleosomes; amplitude-normalised; mean of three …; parent: est. 14; read off a plot
6xHis-MBP–BARD1^425–777 = 6xHis-MBP–BARD1^425–777 (UniProt Q99728); experiment: MST; conditions: read at the highest titrant concentration (4000 nM 6xHis-MBP–BARD1ARD-BRCTs); 20 nM 5′ FAM-labelled nucleosomes; amplitude-normalised; mean of three …; parent: est. 10; read off a plot

## human Flag-BRCA1^ΔExon11:6xHis-FL BARD1 complex (from UniProt P38398-5 1-721; Q99728 1-777)
[1]
  affinity relative to BARD1^ARD-BRCTs, fold: 2 fold

## unmodified mono-nucleosome
[2]
  fold affinity relative to BARD1 ARD-BRCTs (fold affinity vs BARD1 ARD-BRCTs): 2

## unmodified mono-nucleosome (from UniProt P0C0S8;P33778;P68431;P62805) H2A:E61A; H2A:E91A; H2A:E92A; H2B:E105A
[3]
  response (Fnorm [1/1000]): 5.7
6xHis-MBP–BARD1^425–777
  response (Fnorm [1/1000]): 1.5
